In article PMC10989685 (2024):

How the values were obtained:
Neurexin2α = Neurexin2α (UniProt E9Q7X7); experiment: SPR
[1] = molecular target: Recombinant human His-tagged IgSF21 protein (R&D Systems #10330-S2) (human, UniProt Q96ID5 25-444); experiment: SPR

Neurexin2α, sequence (E9Q7X7 29-1634): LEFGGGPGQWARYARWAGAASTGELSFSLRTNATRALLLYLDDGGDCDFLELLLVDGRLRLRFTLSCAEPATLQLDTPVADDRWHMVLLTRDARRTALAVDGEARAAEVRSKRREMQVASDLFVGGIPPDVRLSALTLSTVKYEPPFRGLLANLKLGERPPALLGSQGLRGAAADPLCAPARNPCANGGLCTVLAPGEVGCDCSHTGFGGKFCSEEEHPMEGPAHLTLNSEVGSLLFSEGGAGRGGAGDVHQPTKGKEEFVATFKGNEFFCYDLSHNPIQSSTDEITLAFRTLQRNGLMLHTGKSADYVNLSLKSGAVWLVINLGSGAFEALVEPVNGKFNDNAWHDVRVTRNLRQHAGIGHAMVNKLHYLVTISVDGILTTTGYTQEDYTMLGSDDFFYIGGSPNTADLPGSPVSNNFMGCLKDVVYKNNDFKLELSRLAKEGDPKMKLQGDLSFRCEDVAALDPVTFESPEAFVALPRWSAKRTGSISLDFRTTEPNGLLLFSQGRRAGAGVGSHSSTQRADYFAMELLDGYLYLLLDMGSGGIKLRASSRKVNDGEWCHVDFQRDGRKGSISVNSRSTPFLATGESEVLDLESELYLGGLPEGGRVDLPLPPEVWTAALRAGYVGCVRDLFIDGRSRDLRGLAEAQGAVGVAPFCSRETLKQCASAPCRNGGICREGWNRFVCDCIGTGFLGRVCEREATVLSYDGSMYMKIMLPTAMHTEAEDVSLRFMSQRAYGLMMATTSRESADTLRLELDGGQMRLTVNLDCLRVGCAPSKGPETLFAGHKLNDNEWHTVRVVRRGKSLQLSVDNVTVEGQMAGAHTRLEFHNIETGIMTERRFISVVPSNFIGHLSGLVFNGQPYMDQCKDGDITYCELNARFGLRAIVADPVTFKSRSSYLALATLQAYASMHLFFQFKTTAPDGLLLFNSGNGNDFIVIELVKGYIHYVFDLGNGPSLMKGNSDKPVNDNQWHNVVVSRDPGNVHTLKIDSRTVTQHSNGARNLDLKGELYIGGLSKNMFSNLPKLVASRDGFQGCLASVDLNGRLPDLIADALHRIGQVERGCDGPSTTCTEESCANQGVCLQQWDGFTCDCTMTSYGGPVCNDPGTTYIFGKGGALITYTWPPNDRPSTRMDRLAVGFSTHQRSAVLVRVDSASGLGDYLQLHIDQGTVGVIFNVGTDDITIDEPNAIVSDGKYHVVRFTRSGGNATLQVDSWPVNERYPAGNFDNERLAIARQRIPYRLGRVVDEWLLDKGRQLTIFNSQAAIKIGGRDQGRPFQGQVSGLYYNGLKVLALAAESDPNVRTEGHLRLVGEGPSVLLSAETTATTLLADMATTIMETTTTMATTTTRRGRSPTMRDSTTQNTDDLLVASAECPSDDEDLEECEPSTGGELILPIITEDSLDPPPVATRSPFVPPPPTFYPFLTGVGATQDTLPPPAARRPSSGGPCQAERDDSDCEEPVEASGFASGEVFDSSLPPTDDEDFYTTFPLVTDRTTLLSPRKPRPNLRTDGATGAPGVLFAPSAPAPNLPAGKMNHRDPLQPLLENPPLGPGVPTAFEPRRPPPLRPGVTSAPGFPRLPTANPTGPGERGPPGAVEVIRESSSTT

| Kd (Neurexin2α) [nM] | koff [1] [s⁻¹] | Binder |
| --- | --- | --- |
| 5.67 | – | IgSF21 (protein) YLTVNIEPLPPVVAGDAVTLKCNFKTDGRMREIVWYRVTDGGTIKQKIFTFDAMFSTNYSHMENYRKREDLVYQSTVRLPEVRISDNGPYECHVGIYDRATREKVVLASGNIFLNVMAPPTSIEVVAADSPAPFSRYQAQNFTLVCIVSGGKPAPMVYFKRDGEPIDAVPLTELPAASSGPVQDSRPFRSLLHRDVDDTKMQKSLSLLDTEYRAGRPYTERPARSLTQDPSLFVQPTTENIPETVVSREFPRWVHSAEPVYFLRHSRTPGSDGTVEVRALLTWTLNPQIDNEALFSCEVKHPALSMPMQAEVTLVAPKGPKIMMTPSRARVGDTVRILVHGFQNEVFPEPMFTWTRVGSRLLDGSAEFDGKELVLERVPAELNGSMYRCTAQNPLGSTDTHTRLIVFENPNIPRGTEDSRGSASGPAGVRLTLVLALTVILELT |
| – | 0.00101 | Recombinant human Fc-tagged NRXN2α (human Nrxn2α-Fc, R&D Systems #6636-NX) (Fc fusion) not shown |
